Data taken from patent US20220348651A1 (Novartis, published 2022).

Target: T1, recombinant murine ENTPD2 (residues 29-462) used in crystallography studies (mouse, UniProt O55026 29-462, N-linked glycosylation observed at Asn129 and Asn378)
T1 construct: also called murine ENTPD2 ectodomain; mENTPD2
T1 sequence: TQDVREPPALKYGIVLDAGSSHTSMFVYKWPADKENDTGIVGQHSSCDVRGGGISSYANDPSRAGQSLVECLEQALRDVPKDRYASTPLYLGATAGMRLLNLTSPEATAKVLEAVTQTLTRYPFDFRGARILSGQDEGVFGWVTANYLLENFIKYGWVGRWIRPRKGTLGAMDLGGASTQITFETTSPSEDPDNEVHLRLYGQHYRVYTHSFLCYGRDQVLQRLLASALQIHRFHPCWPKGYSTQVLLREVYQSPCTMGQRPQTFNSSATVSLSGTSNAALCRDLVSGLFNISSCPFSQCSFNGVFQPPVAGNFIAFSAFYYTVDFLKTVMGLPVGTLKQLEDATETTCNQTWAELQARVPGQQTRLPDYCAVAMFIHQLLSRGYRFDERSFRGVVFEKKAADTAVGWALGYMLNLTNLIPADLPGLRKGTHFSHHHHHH
Assay: X-ray crystal structure of the complex
Method: Structure determination by molecular replacement was performed using the previously determined human ENTPD2 coordinates and Fab coordinates from PDB code 3QRG.

B1: ANTI-mouse ENTPD2 FAB24 (Fab, V domains shown)
VH: QVQLVQSGAELKQPGQSVKISCKASGYTFTHYGMNWVKQAPGQGLKWMGWINTDTGNPTYADDFKGRFVFSLDTSVSTAYLQISNLKNEDTATYYCVRYGTLYSGYGFFFDSWGQGTLVTVSS
VL: DIMMTQSPSSLSVSAGEKATITCKSSQSLFNSNTNKNYLNWYLQKPGQSPKLLFYYASTRHTGVPDRFIGSGSGTDFTLTITSVQDEDLADYYCQQWYSYPWTFGPGTKLEIKR
modifications: N-terminal residue observed and modeled as pyroglutamate in the crystal structure
notes: Fab with the variable regions of mAb13; human CH1 and kappa constant regions; also called anti-murine ENTPD2 Fab MAB13
Binder B1 has a buried solvent-accessible surface of roughly 16300 Å2.
